Reference: the supplement of paper PMC9876800

System: peptide library, one residue held at a place counted from the S/T acceptor
Experiment: relative phosphorylation of the sub-library (ratio to the mean residue at this position); higher = residue favoured
Details: human
Method in brief: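 Relative sub-library phosphorylation is a ratio to the mean residue at the same position. Purified recombinant kinases were incubated under kinase-specific conditions with biotinylated degenerate peptide sub-libraries, each fixing one residue at one position around a central Ser/Thr, using 50 μM peptide and 50 μM ATP spiked with γ-32P-ATP for 90 min. Spots captured on streptavidin membranes were phosphorimaged and quantified by densitometry.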

WNK3, construct: aa1-434, sequence (Q9BYP7 1-434, looked up): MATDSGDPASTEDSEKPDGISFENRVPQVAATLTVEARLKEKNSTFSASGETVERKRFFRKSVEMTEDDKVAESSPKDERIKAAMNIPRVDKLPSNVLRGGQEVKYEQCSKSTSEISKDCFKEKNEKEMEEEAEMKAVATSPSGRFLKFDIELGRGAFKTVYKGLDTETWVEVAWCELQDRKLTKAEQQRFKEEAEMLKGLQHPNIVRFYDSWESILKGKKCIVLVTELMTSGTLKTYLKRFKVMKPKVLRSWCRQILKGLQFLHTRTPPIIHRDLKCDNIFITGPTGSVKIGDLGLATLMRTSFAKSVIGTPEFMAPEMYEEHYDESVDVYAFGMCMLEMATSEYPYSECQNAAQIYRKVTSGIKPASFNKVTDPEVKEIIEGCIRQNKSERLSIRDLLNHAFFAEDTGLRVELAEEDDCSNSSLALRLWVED
TGFBR1, construct: aa20-end, sequence (P36897 20-503, looked up): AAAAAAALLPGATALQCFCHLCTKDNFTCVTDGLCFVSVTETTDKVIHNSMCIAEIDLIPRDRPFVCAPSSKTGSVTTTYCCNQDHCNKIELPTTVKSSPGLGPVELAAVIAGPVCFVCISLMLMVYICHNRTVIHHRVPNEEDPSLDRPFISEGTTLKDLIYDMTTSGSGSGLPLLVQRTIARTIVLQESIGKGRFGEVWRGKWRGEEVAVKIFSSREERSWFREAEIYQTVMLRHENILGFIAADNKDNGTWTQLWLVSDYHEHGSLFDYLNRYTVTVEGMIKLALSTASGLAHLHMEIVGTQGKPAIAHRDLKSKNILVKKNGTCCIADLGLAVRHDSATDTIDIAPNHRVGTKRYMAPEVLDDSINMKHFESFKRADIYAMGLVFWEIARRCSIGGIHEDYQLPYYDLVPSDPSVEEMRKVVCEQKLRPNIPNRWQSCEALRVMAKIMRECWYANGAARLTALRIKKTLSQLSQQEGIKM
STK17A, construct: Full length, sequence (Q9UEE5 whole entry, looked up): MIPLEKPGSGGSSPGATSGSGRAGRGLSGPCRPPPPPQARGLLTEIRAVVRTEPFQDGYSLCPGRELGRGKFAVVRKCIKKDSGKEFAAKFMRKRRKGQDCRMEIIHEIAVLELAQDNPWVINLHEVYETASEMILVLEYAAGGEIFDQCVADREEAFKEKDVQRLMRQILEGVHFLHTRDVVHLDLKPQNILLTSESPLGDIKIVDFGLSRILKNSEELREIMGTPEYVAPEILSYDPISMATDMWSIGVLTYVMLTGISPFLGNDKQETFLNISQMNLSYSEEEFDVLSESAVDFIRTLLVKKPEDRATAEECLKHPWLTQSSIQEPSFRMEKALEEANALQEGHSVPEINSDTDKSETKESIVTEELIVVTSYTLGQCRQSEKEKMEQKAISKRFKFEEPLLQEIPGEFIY

STK17A, construct: Full length (from UniProt Q9UEE5)
relative phosphorylation
Details	at +1	at +2	at +3	at +4	at -1	at -2	at -3	at -4	at -5
A fixed	0.4	0.562	0.679	0.808	0.636	1.04	0.701	0.927	0.979
D fixed	0.954	0.564	0.686	0.86	0.85	0.657	0.799	1.06	0.922
E fixed	0.984	0.612	1.18	0.917	0.967	0.597	0.681	1.09	0.916
F fixed	4.75	0.832	1.05	0.896	1.11	0.943	0.802	0.772	0.876
G fixed	0.63	0.444	0.889	0.868	0.801	1.2	0.868	1.23	1.11
H fixed	0.502	1.83	1.12	1.15	1.16	1.25	1.02	1.03	1.06
I fixed	0.75	0.709	1.49	0.742	0.621	0.491	0.65	0.586	0.721
K fixed	0.498	1.7	1.08	1.49	1.23	1.32	1.28	1.43	1.63
L fixed	0.678	0.732	0.989	0.713	1.24	0.648	0.783	0.62	0.872
M fixed	1.41	0.787	0.984	0.669	1.19	0.892	1.13	0.798	0.837
N fixed	0.558	0.93	0.733	0.988	1.06	1.05	0.902	1	1.06
P fixed	0.251	0.332	0.539	0.952	0.589	0.673	0.888	0.979	0.993
Q fixed	1.66	1.09	0.815	1	0.931	0.934	0.989	0.782	0.704
R fixed	0.494	2.6	1.17	1.7	1.18	1.8	2.58	1.32	1.38
V fixed	0.53	0.708	1.04	0.693	0.721	0.638	0.56	0.73	0.829
W fixed	0.974	1.16	1.2	1.33	1.07	1.83	1.43	1.81	1.16
Y fixed	0.972	1.41	1.37	1.23	1.64	1.04	0.945	0.842	0.947
pThr fixed	6.24	3.31	1.2	1.45	0.813	0.788	0.9	0.977	0.971
pTyr fixed	1.4	1.6	3.08	1.39	1.61	0.941	1.06	1.17	0.918

TGFBR1, construct: aa20-end (from UniProt P36897)
relative phosphorylation
Details	at +1	at +2	at +3	at +4	at -1	at -2	at -3	at -4	at -5
A fixed	0.823	1.16	0.888	0.966	0.853	0.688	0.982	1.11	1.12
D fixed	1.69	1.71	1.48	1.29	1.42	1.62	1.5	1.39	1.15
E fixed	2.27	1.57	1.94	1.55	1.78	7.31	1.73	1.22	1.21
F fixed	1	1.05	0.773	0.942	0.858	0.397	0.748	0.805	0.908
G fixed	0.779	1.13	1.63	1.2	0.834	0.712	1.19	1.33	1.1
H fixed	1.15	0.728	0.792	0.846	0.968	0.513	0.894	0.991	0.944
I fixed	1.03	1.07	0.954	1.01	0.86	0.474	0.814	0.96	0.929
K fixed	0.396	0.545	0.448	0.59	0.5	0.4	0.598	0.719	0.892
L fixed	0.751	0.706	0.899	0.908	1.18	0.486	0.841	0.943	0.878
M fixed	1.25	0.915	0.916	0.871	1.35	0.545	1.1	1.02	0.983
N fixed	0.733	0.874	0.809	0.879	1.06	0.767	1.06	1.15	1.31
P fixed	0.522	1.07	1.32	1.32	0.592	0.459	0.982	1.09	1.03
Q fixed	0.826	0.717	0.794	0.834	1.04	0.893	0.992	0.865	0.917
R fixed	0.357	0.489	0.467	0.519	0.589	0.435	0.633	0.697	0.844
V fixed	1.05	1.18	1.02	0.959	1.26	0.501	0.924	1.02	0.978
W fixed	0.919	0.954	0.915	1.27	0.804	0.4	1.2	0.787	0.822
Y fixed	1.44	1.12	0.956	1.03	1.04	0.401	0.815	0.89	0.98
pThr fixed	3.78	1.38	1.04	1.62	1.19	1.48	1.07	0.963	0.853
pTyr fixed	4.22	1.82	1.39	1.66	1.51	0.639	1.08	1.05	0.835

WNK3, construct: aa1-434 (from UniProt Q9BYP7)
relative phosphorylation
Details	at +1	at +2	at +3	at +4	at -1	at -2	at -3	at -4	at -5
A fixed	0.622	0.792	0.655	0.69	0.647	1.05	0.84	0.962	0.856
D fixed	0.416	0.7	0.675	0.609	0.462	0.409	0.519	0.598	0.749
E fixed	0.359	0.496	0.64	0.647	0.6	0.361	0.552	0.766	0.91
F fixed	1.36	1.09	1.43	1.25	0.983	0.865	0.748	0.843	1.14
G fixed	0.784	0.939	0.674	0.771	0.605	1.41	0.728	0.853	0.972
H fixed	1.02	0.981	1.31	1.01	1.11	1.56	1.44	1.3	1.24
I fixed	1.19	1.59	1.09	1.38	0.924	0.746	0.95	0.836	0.879
K fixed	0.825	0.772	1	1	1.51	1.19	1.7	1.37	1.39
L fixed	1.61	1.5	1.32	1.29	1.26	0.8	0.862	0.858	0.753
M fixed	1.84	1.54	1.29	1.41	1.49	0.852	1.16	0.894	0.861
N fixed	0.937	0.654	0.747	0.682	0.799	0.815	0.795	0.973	0.968
P fixed	0.278	0.356	0.441	0.626	0.428	1.24	0.794	0.8	0.702
Q fixed	1.16	0.608	0.648	0.677	1.22	0.768	1.11	0.901	0.986
R fixed	1.16	1.64	0.994	0.959	1.53	1.85	1.87	1.77	1.69
V fixed	1.03	1.28	0.994	1.35	1.09	1.07	0.871	0.957	0.818
W fixed	1.06	0.946	1.59	1.4	1.15	1.01	1.01	1.14	0.974
Y fixed	1.33	1.12	1.51	1.24	1.2	0.997	1.06	1.19	1.12
pThr fixed	0.485	0.521	0.513	0.543	0.566	0.779	0.812	0.96	0.798
pTyr fixed	0.566	0.549	0.663	0.56	0.893	0.555	0.741	0.842	0.859
